Source: PMC9580340

Target: soluble dimeric human ACE2, Fc-tagged, biotinylated (ACRO Biosystems AC2-H82F9) (human) (UniProt Q9BYF1)
Assay: SPR

Q: “SARS-CoV-2 D614G S2P spike trimer (binding studies) (domain or fragment)” was tested. Which Kd did it give?
A: 0.73 nM

Q: How did the Kd turn out when “SARS-CoV-2 B.1.1.529 S2P spike trimer (binding studies) (domain or fragment)” was run?
A: 0.59 to 3.8 nM

Q: Which Kd does the source give for “SARS-CoV-2 WA-1 S2P spike trimer (binding studies) (domain or fragment)” here?
A: 1.1 nM
